The target of experiment [1] is T1, mouse IL-25 (mouse, UniProt Q8VHH8 17-169).
T1 chain: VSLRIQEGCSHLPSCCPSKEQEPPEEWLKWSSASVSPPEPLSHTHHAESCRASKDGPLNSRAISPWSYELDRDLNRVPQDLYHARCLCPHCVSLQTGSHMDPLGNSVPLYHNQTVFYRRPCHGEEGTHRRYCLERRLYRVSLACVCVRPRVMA
Description: SPR.

For experiment [2], the target named is T1, mouse IL-25.
The target of experiment [3] is T2, recombinant human IL-25 (R&D Systems) (human, UniProt Q9H293 33-177).
T2 chain: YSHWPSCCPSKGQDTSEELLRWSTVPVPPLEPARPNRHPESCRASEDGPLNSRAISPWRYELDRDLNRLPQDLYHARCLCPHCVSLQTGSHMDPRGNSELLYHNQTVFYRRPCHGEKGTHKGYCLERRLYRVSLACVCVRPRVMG

For the next experiment, the target named is hABM125.10. In words: SPR.
A further experiment addresses hABM125.9. In words: SPR. Background: SPR reads the build-up and loss of mass on a sensor chip optically.

Positions count from the first letter of the chain named. Where two headings read alike, the source gives them in different places.

B1: ABM125 (antibody, V domains shown)
VH: QVTLKVSGPGILQPSQTLSLTCSFSGFSLNTSGMGVGWIRQPSGKGLEWLAHIWWDDVKRYNPALKSRLTISKDTSGSQVFLKIASVDTADTATYYCARTLPHFFDYWGQGTTLTVSS
VL: DIQMTQSPAIMSASPGEKVTISCSASSSVSYMYWYQQKSGSSPKPWIYRTSNLASGVPARFSGSGSGTSYSLTISSMEAEDAATYYCKQYHSYPPTWTFGGGTKLEIKR
The molecule B1 yielded a Kd in the experiment with mouse IL-25 [1] of 0.0073 nM.

B2: ABM109.2 (antibody, V domains shown)
VH: QVQLVQSGAEVKKPGASVKVSCKASGYTFSSYWIEWVRQAPGQGLEWIGQILPGIGSTNYNEKFKGRVTITADTSTSTVYMELSSLRSEDTAVYYCARGYGNYGDYWGQGTTVTVSS
VL: DIVLTQSPASLAVSPGQRATITCRASESVDSYGNSFMHWYQQKPGQPPKLLIYRASNLESGVPARFSGSGSGTDFTLTINPVEAQDTANYYCQQSNEDPLTFGAGTKLELKR
In the case of B2, the equilibrium dissociation constant (Kd) in the experiment with mouse IL-25 [2] turned out to be 0.028 nM.

B3: ABM 109 (antibody, V domains shown)
VH: EVKVVESGADLMKPGASVKISCKATGYTFSSYWIEWVKQRPGHGLEWIGQILPGIGSTNYNEKFKGKATFTADTSSNTAYMQLSSLTSEDSAVYYCARGYGNYGDYWGQGTTVTVSS
VL: B2 VL with P15L, T22S, V62I, G72R, Q85D, T87V, N89T
B3: in experiment [3], the Kd came to 0.004 nM.

B4: mouse IL-25 (NS0) (ligand)
chain: T1 chain
Turning to B4, the Kd with hABM125.10 came out at 1.06 nM; in the experiment with hABM125.9 it was 0.733 nM.

For orientation: Kd means the free concentration of one partner at which half of the binding sites on the other are occupied at equilibrium, for simple one-to-one binding.

The values are drawn from US20200291105A1 (published 2020).
